According to patent US20150176059:
Where two headings read alike, the source gives them in different places.

What was measured:
[1] = system: Z05 DNA polymerase (Thermus sp. Z05?); assay: inhibition; conditions: KRAS PCR, 60 C, 10x excess, no UNG, 20 nM Z05, 3 mM MgCl2
[2] = system: Z05-D DNA polymerase (Thermus sp. Z05?); conditions: SYBR Green melting, 50 mM Tris pH 8.0, 100 mM KCl, 2.5 mM MgCl2

CGATCATCTCAGAACATTCTTAGCGTTTTGTTCTTGTGTATGATCG [U0 (NTQ21-46A)]
activity ([1]; no-target Ct 32.0 vs 25.7 without aptamer): 32 Ct | binding ([2]; aptamer Tm 60.7 C with 20 nM Z05-D vs 59.0 C without): 1.7 °C

CGATCATCTCAGAACATTCTTAGCGTTTUGUUCUUGTGTATGATCG [U2]
activity ([1]; dU replacing dT at positions shown as u (medium dU content), no-target Ct 31.2 vs 25.7 without aptamer): 31.2 Ct | binding ([2]; dU replacing dT at positions shown as u (medium dU content), aptamer Tm 59.5 C with 20 nM Z05-D vs 57.9 C without): 1.6 °C

CGAUCAUCTCAGAACATTCTTAGCGTTTTGTTCTTGTGTAUGAUCG [U1]
activity ([1]; dU replacing dT at positions shown as u (low dU content), no-target Ct 31.7 vs 25.7 without aptamer): 31.7 Ct | binding ([2]; dU replacing dT at positions shown as u (low dU content), aptamer Tm 58.4 C with 20 nM Z05-D vs 56.8 C without): 1.6 °C

CGAUCAUCTCAGAACATTCTTAGCGTTTUGUUCUUGTGTAUGAUCG [U3]
activity ([1]; dU replacing dT at positions shown as u (high dU content), no-target Ct 30.8 vs 25.7 without aptamer): 30.8 Ct | binding ([2]; dU replacing dT at positions shown as u (high dU content), aptamer Tm 57.6 C with 20 nM Z05-D vs 55.6 C without): 2 °C
